In the supplement of paper PMC7125110:
± gives the standard error. Fewer inactive variants are shown than the library holds.

B1: glmS ribozyme (parent)
chain: AUAAAAGCGCCAGAACUACAGAAAUGUAGUUGACGAGGAGGAGGUUUAUCGAAUUUUCGGCGGAUGCCUCCAAA

Variants of: B1
Assay: self-cleavage kobs at 2500 uM GlcN6P; higher = faster cleavage; RNA array
Conditions: with glucosamine-6-phosphate
In short: (§1)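 On sequenced MiSeq chips, barcoded ribozyme variants were made in situ by E. coli RNA polymerase and followed at 37 °C through a hybridised Cy3 probe. Glucosamine-6-phosphate was flowed in at 40 μM to 10 mM in HEPES/KCl/Mg(OAc)2 buffer. Exponential fits to normalised per-tile medians gave kobs, and weighted Michaelis–Menten fits gave kcat and KM.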

Row | Variant | self-cleavage kobs at 2500 uM GlcN6P [s⁻¹]
1 | AUAAAAGCGCCAGAACUACAGAAAUGUAGUUGACGAGGAGGAAGUUAAUCGAAUUUUCGGCGGAUGCCUCCAAA [G43A U47A] | 1.85e-05 ± 8.2e-06
2 | AUAAAAGCGGCACGACUACAGAAAUGUAGUCGACGAGGAGGAGGUUAAUCGAAUUUUCGGCGGAUGCCUCCAAA [C10G G13C A14G U31C U47A] | < 1e-05
3 | AUAAAAGCGCCAGAACUACAGAAAUGUAGUUGACGGGGAGGAGGUUUAUCGAAUUUUUUGCGGGUGCCUCCAAA [A36G C58U G59U A64G] | < 1e-05
4 | AUAAAAGCGCCAGAACUACAGAAAUGUAGUUGACGAGGACGAGGGUUAUCGAAUUUUUGGCGGAUGCCUCCAAA [G40C U45G C58U] | < 1e-05
5 | AUAAAAGCGCCAGAACUACAGAAAUGUAGUUGACGAGGAUGAGGUUUAUCGAAUUUUGGUCGGAUGCUUCCAAA [G40U C58G G60U C68U] | < 1e-05
6 | AUAAAAGCGCCAGAACUACAGAAAUGUAGUUGACGAGGAGGCGGCUUUUCGAAUUUUCGGAGGAUGCCUCCAAA [A42C U45C A48U C61A] | < 1e-05
7 | AUAAAAGCGCCAGAACUACAGAAAUGUAGUUGACGAGGAAGAGGUUUAUCGAAUUUUCCGCGAAUGCAUCCAAA [G40A G59C G63A C68A] | < 1e-05
8 | AUAAAAGCGCCAAAACUACAGAAAUGUAGUUGACGAGGAGGAAGUUUACCGAAUUUUAGGCGGAUGCCUCCAAA [G13A G43A U49C C58A] | < 1e-05
9 | AUAAAAGCGCCAGAACUACAGAAAUGUAGUUGACGAUGGGGAGGUUUAUCGAAUUUUCGGCGGAUGCGUCCAAA [G37U A39G C68G] | < 1e-05
10 | AUAAAAGCGCCAGCACUACAGAAAUGUAGGUGACGAGGAGGAGGUUUAUCGAAUUUUGGGCGGAUGCCUCCAAA [A14C U30G C58G] | 5.75e-05 ± 2.4e-05
11 | AUAAAAGCGCCAGAACUACAGAAAUGUAGUUGAAGAGGAGGAAGUUUAUCGAAUUUUCGGCGGGUGCCUCCAAA [C34A G43A A64G] | < 1e-05
12 | AUAAAAGCGCCAGAACUACAGAAAUGUAGUUGAUGAGUAGGAGGUUUAUGGAAUUUUCGGCGGAUGCCUCCAAA [C34U G38U C50G] | 0.000215 ± 5.7e-05
13 | AUAAAAGCGCCAGACCUACAGAAAUGUAGUUGACGAGGAGGAGGCUUAUGGAAUUUUCGGCGGAUGCUUCCAAA [A15C U45C C50G C68U] | < 1e-05
14 | AUAAAAGCGCCAGAACUACAGAAAUGUAGUAGACGGGGAGGAGGUUUAUCGAAUUUUCGGCGAUUGCCUCUAAA [U31A A36G G63A A64U C71U] | < 1e-05
15 | AUAAAAGCGCCAGAACUACAGAAAUGUAAUUGACGAGGAGGAGGUUUAUCGAAUUUUCGUCGGAUGCCUCAAAA [G29A G60U C71A] | < 1e-05
16 | AUAAAAGCGCCAGGACUACAGAAAUGUAGUUGACGAGGAGGAGGUCUCUCGAAUUUUCGGCGGAUGCUUCCAAA [A14G U46C A48C C68U] | 8.06e-05 ± 3.1e-05
17 | AUAAAAGCGUCAGAACUACAGAAAUGUAGUUGACGAGGAAGAGGUUUAUCGCAUUUUCGUCGGAUGCCUCCAAA [C10U G40A A52C G60U] | < 1e-05
18 | AUAAAAGCGCCAGAACUACAGAAAUGUAGUUGACGAGGAGGAGGUUUAUCGCAUUUCCGGCGGAUUCCUCCAAA [A52C U57C G66U] | < 1e-05

Row | Variant | self-cleavage kobs at 2500 uM GlcN6P [s⁻¹]
19 | AUAAAAGCGCCAGAACUACAGAAAUGUAAUUGACGAGUAAGCGGUUUAUCGAAUUUUCGGCGGAUGCCUCCAAA [G29A G38U G40A A42C] | < 1e-05
20 | AUAAAAGCGCAAGGACUACAGAAAUGUAGUUGACGAGGAUGAGGUUUAUCGAAUUUUCGGCGGAUGCCUCCAAA [C11A A14G G40U] | 5.01e-05 ± 1.9e-05
21 | AUAAAAGCGCCAGAGCUACAGAAAUGUAGUUGACGAGGAGGAGGUUUAUCUAAUUUUCGGAGGAUGCCUCCAAA [A15G G51U C61A] | < 1e-05
22 | AUAAAAGCGCCAGAAGUACAGAAAUGUAGUUGACGAUGAGGAGUUUAAUCCAAUUUUCGGCGGAUGCAUCCAAA [C16G G37U G44U U47A G51C C68A] | < 1e-05
23 | AUAAAAGCGCCAUAACUACAGAAAUGUAGUUGACGAGGGGGAGGUUGAUCGAAUUUUCGGCGGAUGCCUCAAAA [G13U A39G U47G C71A] | 5.73e-05 ± 1.7e-05
24 | AUAAAAUCUCCAGAACUACAGAAAUGUAGUUGACGAGGAGGAGGUUAAUCGAAUUUUCGGCGGAUGCCUCCAAA [G7U G9U U47A] | < 1e-05
25 | AUAAAAGCGCCAGAACUACAGAAAUGUAGUUGACUAGGAGGAGGUUUUUCGAAUUGUCGGCGGAUGCCUCCAAA [G35U A48U U56G] | < 1e-05
26 | AUAAAAGCGCGAGAACUACAGAAAUGUAGUUGACGAGGAGGAGGUUUAUGGAAUUUUAGGCGGAUGCCUCCAAA [C11G C50G C58A] | 0.00031 ± 0.00011
27 | AUAAAAGUGCCAGAACUACAGAAAUGUAGUUGACGAGGAGGAGGUUUAUCGAAUUUUGGGCGGAUGCCUUCAAA [C8U C58G C70U] | < 1e-05
28 | AUAAAAGCGCCAGAACUACAGAAAUGUAGUUGACGAGGAGGAGGUUUAUAGAAUUUUCGGCGGAUGCCCCCAAA [C50A U69C] | 6.67e-05 ± 2e-05
29 | AUAAAAGCGCAAGAACUACAGAAAUGUAGUUGACGAGGAGGAGGUUUAUCGUAUUUUCGGCGGACGCCUCCAAA [C11A A52U U65C] | < 1e-05
30 | AUAAAAGCUCCAGAACUACAGAAAUGUAGUAGACGAGGAGGAGGUUUAUCGAAUUUUCGGCGGAUGACUUCAAA [G9U U31A C67A C70U] | < 1e-05
31 | AUAAAAGAGCCCGAACUACAGAAAUGUAGUUGACGAGGAGGAGGUUUAUCGAAUUUUCGGCGGAUGCUUCCAAA [C8A A12C C68U] | < 1e-05
32 | AUAAAAGCGCCGGAACUACAGAAAUGUAGUUGACGAGGAGGAGGGUUAUCGAAUUUUCGUCGGAUGCCUCCAAA [A12G U45G G60U] | < 1e-05
33 | AUAAAACCGCCAGAACUACAGAAAUGUAGUUGACGAGGAGGAGGUUUAUUGAAUUUUCGGCGGCUGCAUCCAAA [G7C C50U A64C C68A] | < 1e-05
34 | AUAAAAGCGCCUGAACUACAGAAAUGUAGUGGACGAGGAGGAGGUUUAUCGAAUUUUCGGCGGAUGCCACCAAA [A12U U31G U69A] | 0.000111 ± 4.9e-05
35 | AUAAAAGCGCCGGAACUACAGAAAUGUACUUGACUAGGUGCAGGUUUAUCGAAUUUUCGGCGGGUGCCUCCAAA [A12G G29C G35U A39U G41C A64G] | < 1e-05

Variants of: B1
Assay: self-cleavage kobs at 10000 uM GlcN6P; higher = faster cleavage; RNA array
Conditions: with glucosamine-6-phosphate
In short: as §1

Row | Variant | self-cleavage kobs at 10000 uM GlcN6P [s⁻¹]
36 | AUAAAAGCGCCAGAACUACAGAAAUGUAGUUGACGAGGAGGAAGUUAAUCGAAUUUUCGGCGGAUGCCUCCAAA [G43A U47A] | 4.61e-05 ± 1.8e-05
37 | AUAAAAGCGCCAGAACUACAGAAAUGUAAUUGACGAGUAAGCGGUUUAUCGAAUUUUCGGCGGAUGCCUCCAAA [G29A G38U G40A A42C] | < 1e-05
